From patent US20260085127A1

How the values were obtained:
[1] = biological target: T1, recombinant human CD39 (in-house product, 38 to 478 aa of Accession No. NM_001776.6) (human) (UniProt P49961); assay: SPR Biacore8K, antibody captured on anti-human IgG, antigen as analyte
T1 sequence (looked up): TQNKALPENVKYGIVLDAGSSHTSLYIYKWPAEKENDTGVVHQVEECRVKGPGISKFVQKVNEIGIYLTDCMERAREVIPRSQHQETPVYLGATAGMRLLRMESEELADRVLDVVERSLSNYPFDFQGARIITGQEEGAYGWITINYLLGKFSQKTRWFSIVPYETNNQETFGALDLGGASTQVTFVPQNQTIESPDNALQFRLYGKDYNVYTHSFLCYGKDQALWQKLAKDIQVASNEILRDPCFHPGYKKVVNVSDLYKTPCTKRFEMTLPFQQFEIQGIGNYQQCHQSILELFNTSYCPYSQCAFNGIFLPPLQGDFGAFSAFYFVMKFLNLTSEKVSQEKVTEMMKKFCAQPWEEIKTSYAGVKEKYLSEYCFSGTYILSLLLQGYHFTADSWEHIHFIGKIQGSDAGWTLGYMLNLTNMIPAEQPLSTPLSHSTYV

[2] = biological target: T2, human CD39 (Accession No. NM_001776.6) expressed on cells (human) (UniProt P49961); assay: flow cytometry, Jurkat/CD39 cells, KD from MFI
T2 sequence (looked up): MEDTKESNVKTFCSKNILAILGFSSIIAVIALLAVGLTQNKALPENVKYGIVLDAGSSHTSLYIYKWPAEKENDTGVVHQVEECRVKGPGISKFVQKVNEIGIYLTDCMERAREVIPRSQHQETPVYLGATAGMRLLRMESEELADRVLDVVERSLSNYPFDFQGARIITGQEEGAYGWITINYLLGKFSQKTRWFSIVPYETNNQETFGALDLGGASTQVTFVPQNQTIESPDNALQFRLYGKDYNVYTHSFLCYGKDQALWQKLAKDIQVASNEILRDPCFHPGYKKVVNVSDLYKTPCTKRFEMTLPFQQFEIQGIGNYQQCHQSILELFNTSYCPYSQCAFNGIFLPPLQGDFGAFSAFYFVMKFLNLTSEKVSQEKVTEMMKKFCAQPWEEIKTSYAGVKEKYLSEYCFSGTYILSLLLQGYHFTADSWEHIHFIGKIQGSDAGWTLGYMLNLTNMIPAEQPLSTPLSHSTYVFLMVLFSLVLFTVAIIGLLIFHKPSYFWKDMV

[3] = biological target: T2, human CD39 (Accession No. NM_001776.6) expressed on cells (human); assay: flow cytometry, Jurkat/TIM-3 + CD39 cells, KD from MFI

B1: HuP4_41_sc (antibody, part only; not given: linker and LALA Fc, not shown: a dimerising Fc or GST)
scFv, part: QVQLVESGGGVVQPGGSLRLSCVVSGFTLTNYGVHWVRQAPGKGLEWLAVILRRGSTDYNAAFMSRLAISKDNSKNTVYLELNSLRLDDTAVVAGDYFDYWGQGTTVTVSSGGGGSGGGGSGGGGSGGGGSQVQLVESGGGVVQPGGSLRLSCVVSGFTLTNYGVHWVRQAPGKGLEWLAVILRRGSTDYNAAFMSRLAISKDNSKNTVYLELNSLRLDDTAVVAGDYFDYWGQGTTVTVSS
[1]
  Kd: 0.106 nM
  koff: 0.000176 s⁻¹
  kon: 1.66e+06 M⁻¹ s⁻¹
[2]
  Kd: 1.88 nM
[3]
  Kd: 2.08 nM
